The target of one assay is T1, hPD1-Fc (human, UniProt Q15116 25-167).
T1 construct: not shown: Fc part not described
Put plainly: SPR.

The target in assay [1] is T2, c-Met, recombinant protein (human, UniProt P08581 25-932, limits assumed).
T2 construct: also called human cMet; cMet-his
The assay is described as follows: SPR. In general terms: In SPR one partner is held on a chip, and binding of the other changes the refractive index at the surface.

For assay [2], the target named is T2, c-Met, recombinant protein. The assay is described as follows: method not stated.
A further assay has as its target membrane EGFR on cells (human, UniProt P00533 25-1210). The assay is described as follows: cell-based or functional assay.
Assay [3] concerns the target T2, c-Met, recombinant protein. The assay is described as follows: protein based binding; method not stated.
The next assay concerns the target Cyno cMet (cynomolgus, UniProt A0A2K5UM36 25-932). The assay is described as follows: protein based binding; method not stated.
In assay [4] the target is T3, human EGFR, recombinant protein (human, UniProt P00533 25-645).
T3 construct: also called hEGFR
The assay is described as follows: method not stated.

T2 sequence (P08581 25-932 limits assumed): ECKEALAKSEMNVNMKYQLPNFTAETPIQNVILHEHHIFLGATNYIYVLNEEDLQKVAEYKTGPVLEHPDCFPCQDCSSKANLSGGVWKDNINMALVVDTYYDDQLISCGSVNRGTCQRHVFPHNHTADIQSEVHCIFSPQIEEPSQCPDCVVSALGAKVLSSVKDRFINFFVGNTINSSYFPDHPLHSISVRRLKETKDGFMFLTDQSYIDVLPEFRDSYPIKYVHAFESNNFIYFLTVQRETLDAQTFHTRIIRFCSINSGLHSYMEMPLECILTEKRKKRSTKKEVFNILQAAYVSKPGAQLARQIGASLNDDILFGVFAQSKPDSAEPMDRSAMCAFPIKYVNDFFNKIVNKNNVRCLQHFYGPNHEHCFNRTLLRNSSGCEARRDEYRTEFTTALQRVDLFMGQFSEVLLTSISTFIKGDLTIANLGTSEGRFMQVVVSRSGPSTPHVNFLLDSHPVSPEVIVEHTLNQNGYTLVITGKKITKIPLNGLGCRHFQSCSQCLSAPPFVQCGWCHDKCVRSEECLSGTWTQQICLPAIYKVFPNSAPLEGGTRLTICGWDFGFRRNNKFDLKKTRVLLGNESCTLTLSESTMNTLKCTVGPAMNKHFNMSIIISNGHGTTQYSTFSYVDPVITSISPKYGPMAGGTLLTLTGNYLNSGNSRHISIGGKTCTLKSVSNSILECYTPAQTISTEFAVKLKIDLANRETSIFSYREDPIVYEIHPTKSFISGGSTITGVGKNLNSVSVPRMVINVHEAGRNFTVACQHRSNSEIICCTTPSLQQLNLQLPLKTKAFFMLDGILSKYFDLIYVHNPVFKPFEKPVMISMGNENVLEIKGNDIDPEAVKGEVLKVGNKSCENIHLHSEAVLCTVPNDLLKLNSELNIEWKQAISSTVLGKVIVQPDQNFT
T1 sequence (Q15116 25-167): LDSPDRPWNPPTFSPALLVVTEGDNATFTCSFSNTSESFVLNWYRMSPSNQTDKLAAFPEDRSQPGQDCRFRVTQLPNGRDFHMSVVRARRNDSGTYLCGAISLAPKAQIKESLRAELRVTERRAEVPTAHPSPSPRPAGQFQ
Chain of Cyno cMet (A0A2K5UM36 entry or part of it limits assumed): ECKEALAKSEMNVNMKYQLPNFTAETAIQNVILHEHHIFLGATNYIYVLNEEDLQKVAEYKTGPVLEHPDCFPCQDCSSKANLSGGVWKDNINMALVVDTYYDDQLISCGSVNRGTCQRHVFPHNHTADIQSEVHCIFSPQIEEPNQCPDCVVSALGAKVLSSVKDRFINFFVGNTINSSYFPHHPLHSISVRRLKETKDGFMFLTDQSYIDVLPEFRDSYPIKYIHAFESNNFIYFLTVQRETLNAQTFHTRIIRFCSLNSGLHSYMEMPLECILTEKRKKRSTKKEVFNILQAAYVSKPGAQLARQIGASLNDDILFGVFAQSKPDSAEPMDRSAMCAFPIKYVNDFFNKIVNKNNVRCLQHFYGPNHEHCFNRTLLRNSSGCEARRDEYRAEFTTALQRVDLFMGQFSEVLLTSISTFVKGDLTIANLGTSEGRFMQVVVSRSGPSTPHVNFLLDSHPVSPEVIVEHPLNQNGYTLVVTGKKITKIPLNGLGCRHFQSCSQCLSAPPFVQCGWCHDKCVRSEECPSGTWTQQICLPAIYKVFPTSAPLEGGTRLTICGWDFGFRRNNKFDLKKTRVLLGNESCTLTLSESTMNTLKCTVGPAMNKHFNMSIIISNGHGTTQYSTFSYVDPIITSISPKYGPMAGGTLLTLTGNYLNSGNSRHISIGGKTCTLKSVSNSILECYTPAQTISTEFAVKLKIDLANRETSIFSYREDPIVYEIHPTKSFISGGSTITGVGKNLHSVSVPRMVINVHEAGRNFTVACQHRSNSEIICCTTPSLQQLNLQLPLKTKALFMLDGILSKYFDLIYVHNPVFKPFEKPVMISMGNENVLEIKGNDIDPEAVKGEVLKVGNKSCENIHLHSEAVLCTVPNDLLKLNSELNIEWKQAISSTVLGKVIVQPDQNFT

B1: FIT022a HER3 (patritumab)/PD-1 (nivolumab) (bispecific antibody, human IgG1, kappa)
chain 1: not shown
chain 2: QVQLQQWGAGLLKPSETLSLTCAVYGGSFSGYYWSWIRQPPGKGLEWIGEINHSGSTNYNPSLKSRVTISVETSKNQFSLKLSSVTAADTAVYYCARDKWTWYFDLWGRGTLVTVSSASTKGPSVFPLAPSSKSTSGGTAALGCLVKDYFPEPVTVSWNSGALTSGVHTFPAVLQSSGLYSLSSVVTVPSSSLGTQTYICNVNHKPSNTKVDKKVEPKSC
chain 3: not shown
notes: leader left out; also called FIT022a-Ig
Regarding B1, the affinity with hPD1-Fc, expressed as Kd, was 2.34 nM.

B2: cMet antibody h1332 (13.3.2L-A91T,H-42K,S97T) (antibody, V domains shown)
VH: QVQLVQSGAEVKKPGASVKVSCKASGYTFTSYGFSWVRQAPGQGLEWMGWISASNGNTYYAQKLQGRVTMTTDTSTSTAYMELRSLRSDDTAVYYCARVYADYADYWGQGTLVTVSS
VL: DIQMTQSPSSVSASVGDRVTITCRASQGINTWLAWYQQKPGKAPKLLIYAASSLKSGVPSRFSGSGSGTDFTLTISSLQPEDFATYYCQQANSFPLTFGGGTKVEIK
notes: parental mAb; also called mAb-h1332
Turning to B2, the Kd (usually the concentration at which binding is half-saturated) in assay [1] turned out to be 2.19 nM; in assay [2], 2.63 nM; in assay [3] it was 1.27 nM; in the assay with Cyno cMet it was 4.53 nM. In the assay with membrane EGFR on cells, the “EGFR Depletion (%) on H441 cell, FACS” value is 0%.

B3: FIT13a-Ig cMet (h1332)/EGFR (panitumumab) (bispecific antibody, human IgG1, kappa)
chain 1: not shown
chain 2: QVQLVQSGAEVKKPGASVKVSCKASGYTFTSYGFSWVRQAPGQGLEWMGWISASNGNTYYAQKLQGRVTMTTDTSTSTAYMELRSLRSDDTAVYYCARVYADYADYWGQGTLVTVSSASTKGPSVFPLAPSSKSTSGGTAALGCLVKDYFPEPVTVSWNSGALTSGVHTFPAVLQSSGLYSLSSVVTVPSSSLGTQTYICNVNHKPSNTKVDKKVEPKSC
chain 3: not shown
notes: also called FIT-Ig13a
As for B3, the Kd in assay [4] was determined as 1.52 nM.

The record behind these values is patent US20230220080A1 (EPIMAB BIOTHERAPEUTICS, published 2023).
